Publication PMC5923229 (2018)

Target: the molecule itself

B1: H46R/H48Q SOD1 with ebsulphur conjugated at Cys111 (enzyme)
chain: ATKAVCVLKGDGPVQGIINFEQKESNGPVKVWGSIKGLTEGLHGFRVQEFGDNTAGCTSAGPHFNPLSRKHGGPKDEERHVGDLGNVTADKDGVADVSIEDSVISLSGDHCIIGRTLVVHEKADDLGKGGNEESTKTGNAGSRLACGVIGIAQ
modifications: ebsulphur conjugated at Cys111
Protein B1 has a Kd of 676 nM.
